Measurements published in article PMC9935396, “Structures of transcription preinitiation complex engaged with the +1 nucleosome” (Nature Structural & Molecular Biology, 2022).

Biological target: T1, Tfb2 (p52), subunit of TFIIH (S. cerevisiae, UniProt Q02939 1-513)
T1 construct: Tfb2 (p52 in human), subunit of S. cerevisiae TFIIH; Stood in the assay as a subunit of TFIIH
T1 sequence: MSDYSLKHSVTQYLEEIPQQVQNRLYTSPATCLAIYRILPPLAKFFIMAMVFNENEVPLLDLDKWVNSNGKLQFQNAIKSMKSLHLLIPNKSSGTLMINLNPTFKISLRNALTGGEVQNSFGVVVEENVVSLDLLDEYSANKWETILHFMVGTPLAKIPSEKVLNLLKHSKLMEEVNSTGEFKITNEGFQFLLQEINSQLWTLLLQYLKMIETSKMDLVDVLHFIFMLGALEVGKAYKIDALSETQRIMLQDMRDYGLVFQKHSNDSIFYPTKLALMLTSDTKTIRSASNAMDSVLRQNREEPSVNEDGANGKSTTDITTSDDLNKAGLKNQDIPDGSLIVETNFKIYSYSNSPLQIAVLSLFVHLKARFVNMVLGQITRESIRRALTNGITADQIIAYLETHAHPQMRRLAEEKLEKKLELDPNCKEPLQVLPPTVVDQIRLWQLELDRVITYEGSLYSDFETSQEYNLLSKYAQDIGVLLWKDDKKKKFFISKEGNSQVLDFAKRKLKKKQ
Assay: cryo-EM structure; PIC-nucleosome complex A, without NTPs; PIC assembled in vitro on nucleosomal 209 bp His4 promoter/Widom-601 scaffold, GraFix (15-40% sucrose, 0-0.1% glutaraldehyde); overall 3.3 Å
Conditions: both partners purified

- binding result: binds
B1: Tfb5, subunit of TFIIH (natural protein, S. cerevisiae)
chain: MARARKGALVQCDPSIKALILQIDAKMSDIVLEELDDTHLLVNPSKVEFVKHELNRLLSKNIYNPMDEEENQ
notes: Tfb5, subunit of S. cerevisiae TFIIH; Stood in the assay as a subunit of TFIIH
